{"source": "patent US7268212B2", "about": "“Ligand of G protein-coupled receptor protein and DNA thereof” (Takeda Pharmaceutical Company Limited, priority 2001, dated 2007)", "note": "Non-standard residues stand in square brackets, D forms with d. Residues, ends and D or L forms follow the SMILES beside them. No end group written: not given here. Trp(6-Br) = N[C@@H](Cc1c[nH]c2cc(Br)ccc12)C(=O)O; dTrp(6-Br) = N[C@H](Cc1c[nH]c2cc(Br)ccc12)C(=O)O", "data": [{"biological_target": "T1, GPR7 (Homo sapiens, UniProt P48145)", "T1 sequence (P48145 1-328)": "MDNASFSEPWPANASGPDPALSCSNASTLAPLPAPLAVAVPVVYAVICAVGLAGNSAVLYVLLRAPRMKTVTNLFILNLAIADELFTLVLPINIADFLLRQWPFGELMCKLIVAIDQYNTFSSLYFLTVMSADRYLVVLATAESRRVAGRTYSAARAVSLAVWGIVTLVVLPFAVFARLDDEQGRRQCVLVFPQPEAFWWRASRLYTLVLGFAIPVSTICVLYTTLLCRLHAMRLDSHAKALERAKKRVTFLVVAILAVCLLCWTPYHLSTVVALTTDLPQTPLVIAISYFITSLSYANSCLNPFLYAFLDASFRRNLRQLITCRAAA", "assay": "Test on binding inhibition of various peptides against human GPR7-expressed CHO cell membrane fraction", "parameters": "The synthetic primers were constructed so as to amplify the gene in the region to be translated to its receptor protein; expressed in transfected cells; host or cells: CHO cells, membrane fraction", "conditions": "iodine-labeled hGPR7L-23; human GPR7-expressed CHO cell membrane fraction 1 μg/well; room temperature 1.5 hour", "method": "A mixture of 20 μl of hGPR7L-23 (SEQ ID NO:1) (0.1 mM or 1 mM), 20 μl of lactoperoxidase (Sigma; prepared using 10 μg/ml and 0.1M HEPES-NaOH pH7.0), 20 μl of Idoine-125 (manufactured by Amersham, MS-30, 74 MBq), 20 μl of 0.005% hydrogen peroxide (manufactured by Wako Pure Chemical Industries, Ltd.) was allowed to stand at room temperature for 20 to 30 minutes. Then, 600 μl of 0.1% TFA was added to the mixture. The mixture was applied to reverse phase HPLC for separation and the peaks of the two'labeled products were fractionated in a tube charged with 1 mL of DMSO. Immediately, the fraction was stored on ice and an aliquot was provided for measurement of the radioactivity with a γ-counter. The remaining preparation was dispensed and stored at −30° C.\nHuman GPR7-expressed CHO cells were cultured in a flask. The flask was washed with 5 mM EDTA/PBS to strip the cells off. The cells were stripped off with 5 mM EDTA/PBS and centrifuged for recovery. The recovered cells were suspended in 25 mL of a buffer for preparing membrane fraction (50 mM Tris-HCl, pH7.5, 5 mM EDTA, 0.1% bovine serum albumin (manufactured by Sigma), 0.5 mM PMSF (manufactured by Wako Pure Chemical Industries, Ltd.), 20 μg/mL leupeptin (manufactured by Peptide Research Institute), 0.1 μg/mL pepstatin A (manufactured by Peptide Research Institute) and 4 μg/mL E-64 (manufactured by Peptide Research Institute)), followed by homogenization on ice using a polytron (12,000 rpm, 15 seconds×3 times). The homogenate was centrifuged at 4° C. under 1,000 g for 10 minutes with a high speed cooling centrifuge to recover the supernatant. […] The pellets were recovered and suspended in a small quantity of the buffer for preparing membrane fractions. […]\nUsing the assay buffer, the human GPR7-expressed CHO cell membrane fraction was diluted in a final concentration of 1 μg/well and iodine-labeled hGPR7L-23 (SEQ ID NO:1) was diluted in a final concentration of […]. […] After 50 μl of a liquid scintillator was dispensed thereto, the radioactivity was counted on a Top Count (Packard) and the data was analyzed in triplet (FIG. 33). […]", "units": {"IC50": "nM"}, "values": [{"molecule": "CC(C)C[C@H](NC(=O)CNC(=O)[C@H](C)NC(=O)[C@H](C)NC(=O)[C@H](CCCNC(=N)N)NC(=O)CNC(=O)[C@@H](NC(=O)[C@H](CO)NC(=O)[C@H](Cc1ccc(O)cc1)NC(=O)[C@H](Cc1ccc(O)cc1)NC(=O)CNC(=O)[C@H](CCC(N)=O)NC(=O)CNC(=O)[C@H](C)NC(=O)[C@@H](NC(=O)[C@@H]1CCCN1C(=O)[C@H](CCCCN)NC(=O)[C@H](Cc1ccc(O)cc1)NC(=O)[C@@H](N)Cc1c[nH]c2cc(Br)ccc12)[C@@H](C)O)C(C)C)C(=O)N[C@@H](CC(C)C)C(=O)N[C@@H](CO)C(=O)NCC(=O)N[C@@H](Cc1ccccc1)C(=O)N[C@@H](Cc1c[nH]cn1)C(=O)N[C@@H](CCCNC(=N)N)C(=O)N[C@@H](CO)C(=O)N1CCC[C@H]1C(=O)N[C@@H](Cc1ccc(O)cc1)C(=O)N[C@@H](C)C(=O)O", "note": "[LTrp(6Br)1-bovine GPR7L(29)] (H-[Trp(6-Br)]YKPTAGQGYYSVGRAAGLLSGFHRSPYA-OH; N-terminus and C-terminus assumed)", "IC50": 0.34}, {"molecule": "WYKPAAGSHHYSVGRAAGLLSSFHRFPST [Trp1-rat GPR7L(29)]", "IC50": 0.34}]}, {"biological_target": "T1, GPR7", "assay": "not given", "conditions": "reported by O'Dowd, B. F. et al.; cited from earlier work", "values": [{"molecule": "β-endorphin", "inhibition of [3H] bremazocine binding to the membrane fraction of GPR7": "inhibited"}]}, {"biological_target": "T2, human GPR7 (human)", "T2 chain": "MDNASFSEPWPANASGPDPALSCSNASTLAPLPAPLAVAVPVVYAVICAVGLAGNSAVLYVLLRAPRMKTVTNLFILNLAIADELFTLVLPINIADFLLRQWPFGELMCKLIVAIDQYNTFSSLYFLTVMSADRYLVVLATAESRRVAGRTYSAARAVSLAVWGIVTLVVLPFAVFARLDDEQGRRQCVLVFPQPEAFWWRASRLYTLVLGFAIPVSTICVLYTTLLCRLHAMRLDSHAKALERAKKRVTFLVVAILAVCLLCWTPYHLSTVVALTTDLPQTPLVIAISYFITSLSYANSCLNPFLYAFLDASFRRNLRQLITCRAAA", "assay": "competition, radioligand", "conditions": "not given", "units": {"IC50": "pM"}, "values": [{"molecule": "WYKPTAGQGYYSVGRAAGLLSGFHRSPYA", "note": "[Trp1-bovine GPR7L(29)]", "IC50": 310}, {"molecule": "WYKPAAGHSSYSVGRAAGLLSGLRRSPYA", "note": "[Trp1-human GPR7L(29)]", "IC50": 330}, {"molecule": "WYKPAAGHSSYSVGRAAGLLSGL", "note": "[Trp1-human GPR7L(23)]", "IC50": 1600}, {"molecule": "[Trp(6-Br)]YKPAAGHSSYSVGRAAGLLSGLRRSPYA", "note": "[LTrp(6Br)1-human GPR7L(29)]", "IC50": 320}, {"molecule": "[dTrp(6-Br)]YKPTAGQGYYSVGRAAGLLSGFHRSPYA", "note": "[DTrp(6Br)1-bovine GPR7L(29)]", "IC50": 6100}, {"molecule": "WYKPAAGSHHYSVGRAAGLLSSFH", "note": "[Trp1-rat GPR7L(24)]", "IC50": 300}, {"molecule": "WYKHVASPRYHTVGRAAGLLMGL", "note": "[Trp1-human GPR8L(23)]", "IC50": 400}, {"molecule": "WYKPAAGHSSYSVGRAAGLLSGLRRSPYA (not fully specified (residue 1); printed as D-Trp(6Br)-Tyr-Lys-Pro-Ala-Ala-Gly-His-Ser-Ser-Tyr-Ser-Val-Gly-Arg-Ala-Ala-Gly-Leu-Leu-Ser-Gly-Leu-Arg-Arg-Ser-Pro-Tyr-Ala)", "note": "[DTrp(6Br)1-human GPR7L(29)]", "IC50": 13000}, {"molecule": "WYKPAAGSHHYSVGRAAGLLSSFHRFPST", "note": "[Trp1-rat GPR7L(29)]", "IC50": 340}, {"molecule": "[Trp(6-Br)]YKPTAGQGYYSVGRAAGLLSGFHRSPYA", "note": "[LTrp(6Br)1-bovine GPR7L(29)]", "IC50": 340}]}, {"biological_target": "T1, GPR7", "assay": "Intracellular cAMP production suppression activity on human GPR7-expressed CHO cells", "format": "cell-based", "parameters": "The synthetic primers were constructed so as to amplify the gene in the region to be translated to its receptor protein; expressed in transfected cells; host or cells: CHO cells, membrane fraction", "conditions": "forskolin-promoted cAMP production; receptor-expressed CHO cells; read-out: IC50 (nM) human GPR7, cAMP production inhibition", "method": "(§1) The intracellular cAMP production suppression activity of peptides associated with various GPR7 ligands on CHO cells, in which human GPR7, bovine GPR8, human GPR8, human GPR8, bovine GPR8 and rat GPR7 were expressed, was examined. […] An assay buffer was prepared by adding 20 mM HEPES, pH7.4, 0.1% bovine serum albumin and 0.2 mM 3-isobutyl-1-methylxanthine (Sigma) to Hanks' Balanced Salt Solution (Gibco BRL). The plate incubated overnight was first washed twice with 150 μl of the assay buffer, and then exchanged with 150 μl of the assay buffer, followed by incubation for 30 minutes at 37° C. in 100% air. By adding 4 μM forskolin to the assay buffer, a buffer for sample dilution was prepared and the stock solution (10^−2 M of 10^−3 M) was diluted with the buffer thus obtained to prepare sample solutions in final concentrations of 10^−6 M, 10^−7 M, 10^−8 M, 10^−9 M and 10^−10 M. The plate incubated with the assay buffer for 30 minutes was taken out. After washing twice with the assay buffer, 50 μl of the assay buffer and then 50 μl of the sample solution were added thereto. Each sample was assayed in triplet. […] A difference between the maximum cAMP level and the cAMP level when each sample was added was calculated and the percentage of cAMP production level promoted by forskolin was worked out, which was made the cAMP production inhibition rate.", "units": {"IC50": "nM"}, "values": [{"molecule": "CC(C)C[C@H](NC(=O)CNC(=O)[C@H](C)NC(=O)[C@H](C)NC(=O)[C@H](CCCNC(=N)N)NC(=O)CNC(=O)[C@@H](NC(=O)[C@H](CO)NC(=O)[C@H](Cc1ccc(O)cc1)NC(=O)[C@H](Cc1ccc(O)cc1)NC(=O)CNC(=O)[C@H](CCC(N)=O)NC(=O)CNC(=O)[C@H](C)NC(=O)[C@@H](NC(=O)[C@@H]1CCCN1C(=O)[C@H](CCCCN)NC(=O)[C@H](Cc1ccc(O)cc1)NC(=O)[C@@H](N)Cc1c[nH]c2cc(Br)ccc12)[C@@H](C)O)C(C)C)C(=O)N[C@@H](CC(C)C)C(=O)N[C@@H](CO)C(=O)NCC(=O)N[C@@H](Cc1ccccc1)C(=O)N[C@@H](Cc1c[nH]cn1)C(=O)N[C@@H](CCCNC(=N)N)C(=O)N[C@@H](CO)C(=O)N1CCC[C@H]1C(=O)N[C@@H](Cc1ccc(O)cc1)C(=O)N[C@@H](C)C(=O)O", "note": "[LTrp(6Br)1-bovine GPR7L(29)] (H-[Trp(6-Br)]YKPTAGQGYYSVGRAAGLLSGFHRSPYA-OH; N-terminus and C-terminus assumed)", "IC50": 0.58}, {"molecule": "WYKPAAGSHHYSVGRAAGLLSSFH [Trp1-rat GPR7L(24)]", "IC50": 0.31}]}, {"biological_target": "T3, bovine GPR7 (Bos taurus, UniProt Q8MJV3)", "T3 construct": "expressed in transfected cells; host or cells: CHO cells", "T3 sequence (Q8MJV3 1-331)": "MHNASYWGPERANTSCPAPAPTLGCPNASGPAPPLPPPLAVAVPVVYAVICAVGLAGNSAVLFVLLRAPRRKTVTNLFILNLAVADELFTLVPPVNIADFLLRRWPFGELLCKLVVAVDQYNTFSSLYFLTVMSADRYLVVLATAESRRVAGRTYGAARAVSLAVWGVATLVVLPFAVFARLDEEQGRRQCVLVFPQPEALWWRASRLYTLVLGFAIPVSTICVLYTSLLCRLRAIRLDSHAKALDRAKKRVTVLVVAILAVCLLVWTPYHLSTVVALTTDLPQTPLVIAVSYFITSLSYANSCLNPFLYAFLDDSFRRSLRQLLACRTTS", "assay": "Intracellular cAMP production suppression activity on bovine GPR7-expressed CHO cells", "format": "cell-based", "conditions": "forskolin-promoted cAMP production; receptor-expressed CHO cells; read-out: IC50 (nM) bovine GPR7, cAMP production inhibition", "method": "as §1", "units": {"IC50": "nM"}, "values": [{"molecule": "WYKPAAGSHHYSVGRAAGLLSSFHRFPST [Trp1-rat GPR7L(29)]", "IC50": 1.2}]}]}
